Experimental data published in publication PMC3352095, “Structure and function of FusB: an elongation factor G-binding fusidic acid resistance protein active in ribosomal translocation and recycling” (Open Biology, 2012).

Key:
S. aureus EF-G = target: T1, S. aureus EF-G (Staphylococcus aureus, UniProt P68790); test: tripeptide (fMet-Phe-Phe) formation, quenched at […] s, HPLC; assay type: biochemical
T1 construct: gene fusA; full-length wild type, recombinant; assayed on E. coli 70S ribosomes with E. coli translation factors

[1] = target: S. aureus elongation factor G (S. aureus) (UniProt P68790)
[2] = target: S. aureus elongation factor G (S. aureus) (UniProt P68790); remark: listed apart in the source
[3] = target: S. aureus elongation factor G (S. aureus) (UniProt P68790); remark: listed apart in the source
[4] = target: S. aureus elongation factor G (S. aureus) (UniProt P68790); test: SEC; 2 nmol EF-G (wild-type or hybrid) with or without 4 nmol FusB (twofold excess) in 100 µl gel filtration buffer (20 mM Tris pH 7.8, 300 mM NaCl) on Superdex200 10/300; shift in elution volume of the EF-G peak as read-out; hybrid G also with 2.5-fold excess of FusB

## CC(=O)O[C@H]1C[C@@]2(C)[C@@H](C[C@@H](O)[C@H]3[C@@]4(C)CC[C@@H](O)[C@@H](C)[C@@H]4CC[C@@]32C)/C1=C(\CCC=C(C)C)C(=O)O [FA, fusidic acid]
S. aureus EF-G
  inhibition at 150 µM: 50%

## FusB (natural protein)
[1]
  extent of tripeptide formation in 10 s with S. aureus EF-G, FA 150 µM (50 per cent with FA alone), FusB 1 µM: 75 per cent
[2]
  rate of splitting of the post-termination complex by S. aureus EF-G and RRF (Rayleigh light scattering) with FA 10 µM and FusB 1 µM (0.15 s^-1 without FA; blocked with FA alone): 0.02 s⁻¹
[3]
  multiple- and single-round luciferase synthesis in a reconstituted E. coli transcription-translation system with S. aureus EF-G, FA 20 µM, FusB 1 µM; increase against the reactions with only FA: < 5 fold
[4]
  stoichiometry N: 1
